T1: Par4 deletion mutant lacking the leucine zipper/death domain (amino acids 1-276) (human, UniProt Q96IZ0 1-274)
T1 construct: Tested as a Gal4-BD or Gal4-AD fusion in yeast two-hybrid; also called Par4A; Par4Δ
T1 sequence: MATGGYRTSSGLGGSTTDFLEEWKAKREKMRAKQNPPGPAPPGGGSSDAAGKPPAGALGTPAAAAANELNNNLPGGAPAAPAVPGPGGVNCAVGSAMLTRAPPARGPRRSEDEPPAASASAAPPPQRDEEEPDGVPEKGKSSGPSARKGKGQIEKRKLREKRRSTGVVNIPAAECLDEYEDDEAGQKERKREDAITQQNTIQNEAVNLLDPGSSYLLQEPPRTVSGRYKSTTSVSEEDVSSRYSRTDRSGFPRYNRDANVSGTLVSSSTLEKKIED

T2: THAP1-N2 deletion mutant (amino acids 1-166) (human, UniProt Q9NVV9 1-166)
T2 construct: Tested as a Gal4-BD or Gal4-AD fusion, as in vitro translated 35S-labelled protein and as an EGFP fusion
T2 sequence: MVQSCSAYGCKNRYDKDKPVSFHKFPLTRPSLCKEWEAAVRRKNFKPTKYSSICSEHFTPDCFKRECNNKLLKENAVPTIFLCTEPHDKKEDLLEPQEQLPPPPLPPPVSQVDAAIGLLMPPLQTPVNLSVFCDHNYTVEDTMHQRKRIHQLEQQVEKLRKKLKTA

T3: THAP1-N3 deletion mutant (amino acids 1-192) (human, UniProt Q9NVV9 1-192)
T3 construct: Tested as a Gal4-BD or Gal4-AD fusion, as in vitro translated 35S-labelled protein and as an EGFP fusion
T3 sequence: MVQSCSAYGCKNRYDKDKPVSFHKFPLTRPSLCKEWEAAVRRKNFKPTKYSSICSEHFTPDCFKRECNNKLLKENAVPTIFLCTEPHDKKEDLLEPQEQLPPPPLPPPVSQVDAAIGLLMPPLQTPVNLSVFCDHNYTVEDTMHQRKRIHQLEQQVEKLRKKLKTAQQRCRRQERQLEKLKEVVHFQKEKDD

T4: THAP1-C1 deletion mutant (amino acids 90-213) (human, UniProt Q9NVV9 90-213)
T4 construct: Tested as a Gal4-BD or Gal4-AD fusion, as in vitro translated 35S-labelled protein and as an EGFP fusion; also called THAP1ΔTHAP; THAP1?THAP
T4 sequence: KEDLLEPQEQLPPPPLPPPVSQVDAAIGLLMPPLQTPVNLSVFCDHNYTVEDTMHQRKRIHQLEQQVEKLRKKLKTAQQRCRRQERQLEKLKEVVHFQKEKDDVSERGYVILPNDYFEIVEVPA

B1: human THAP1 (THanatos (death)-Associated Protein-1), full length (other)
chain: MVQSCSAYGCKNRYDKDKPVSFHKFPLTRPSLCKEWEAAVRRKNFKPTKYSSICSEHFTPDCFKRECNNKLLKENAVPTIFLCTEPHDKKEDLLEPQEQLPPPPLPPPVSQVDAAIGLLMPPLQTPVNLSVFCDHNYTVEDTMHQRKRIHQLEQQVEKLRKKLKTAQQRCRRQERQLEKLKEVVHFQKEKDDVSERGYVILPNDYFEIVEVPA
notes: It was tested as a Gal4-BD (pGBKT7) or Gal4-AD (pGADT7); also called hTHAP1; FLJ10477
B2: human chemokine SLC/CCL21, mature form (amino acids 24-134) (ligand)
chain: SDGGAQDCCLKYSQRKIPAKVVRSYRKQEPSLGCSIPAILFLPRKRSQAELCADPKELWVQQLMQHLDKTPSPQKPAQGCRKDRGASKTGKKGKGSKGCKRTERSQTPKGP
notes: also called SLC/6Ckine; SLC/CCL21 wild type

Assays:
[1] = target: T5, Glutathione S-transferase (GST) control protein (pGEX-2T) (UniProt P08515 1-218 = GST); assay: GST pull-down, immobilized GST control, in vitro translated 35S-labelled THAP1
T5 construct: Negative control immobilized on glutathione sepharose; also called GST beads; immobilized GST alone
T5 sequence (P08515 whole entry): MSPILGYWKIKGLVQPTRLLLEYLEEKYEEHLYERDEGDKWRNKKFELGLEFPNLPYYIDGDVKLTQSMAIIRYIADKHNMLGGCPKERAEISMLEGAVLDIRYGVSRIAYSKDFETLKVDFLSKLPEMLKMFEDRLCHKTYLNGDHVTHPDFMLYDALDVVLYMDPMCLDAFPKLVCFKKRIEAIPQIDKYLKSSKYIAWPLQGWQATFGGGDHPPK
Experimental: To confirm the interaction observed in yeast, we performed in vitro GST pull down assays. Par4DD, expressed as a GST-tagged fusion protein and immobilized on glutathione sepharose, was incubated with radiolabeled in vitro translated THAP1. To generate the GST-Par4DD expression vector, Par4DD (amino acids 250-342) was amplified by PCR with primers Par4.10 (5′-[…]-3′) (SEQ ID NO: 194) and Par4.5, and cloned in frame downstream of the Glutathion S-Transferase ORF, into the BamHI site of the pGEX-2T prokaryotic expression vector (Amersham Pharmacia Biotech, Saclay, France). GST-Par4DD(amino acids 250-342) fusion protein encoded by plasmid pGEX-2T-Par4DD and control GST protein encoded by plasmid pGEX-2T, were then expressed in E. Coli DH5α and purified by affinity chromatography with glutathione sepharose according to supplier's instructions (Amersham Pharmacia Biotech). The yield of proteins used in GST pull-down assays was determined by SDS-Polyarylamide Gel Electrophoresis (PAGE) and Coomassie blue staining analysis. In vitro-translated THAP1 was generated with the TNT-coupled reticulocyte lysate system (Promega, Madison, Wis., USA) using pGBKT7-THAP1 vector as template. […]

[2] = target: T1, Par4 deletion mutant lacking the …; assay: yeast two-hybrid (His/Ade selection)
From the text: We then examined whether the leucine zipper/death domain at the C-terminus of Par4, previously shown to be involved in Par4 binding to WT-1 and aPKC, was required for the interaction between THAP1 and Par4. Two Par4 mutants were constructed for that purpose, Par4A and Par4DD. Par4A lacks the leucine zipper/death domain while Par4DD contains this domain. pGBKT7-Par4A(amino acids 1-276) and pGADT7-Par4A. were constructed by sub-cloning a EcoRI-BglII fragment from pGADT7-Par4 into the EcoRI and BamHI sites of pGBKT7 and pGADT7. Par4DD (amino acids 250-342) was amplified by PCR, using pGBKT7-Par4 as template, with primers Par4.4 (5′-[…]-3′) (SEQ ID NO: 193) and Par4.5, and cloned into the EcoRI and BamHI sites of pGBKT7 and pGADT7 to obtain pGBKT7-Par4DD and pGADT7-Par4DD. Two-hybrid interaction between THAP1 and Par4 mutants was tested by cotransformation of AH109 with pGBKT7-THAP1 and pGADT7-Par4A or pGADT7-Par4DD and selection of transformants by His and Ade double auxotrophy according to manufacturer's instructions ([…] two-hybrid system 3, Clontech). […] Similar results were obtained when two-hybrid experiments were performed in the opposite orientation using Par4 or Par4 mutants (Par4A and Par4DD) as baits instead of THAP1 (FIG. 3A).

[3] = target: T5, Glutathione S-transferase (GST) control …; assay: GST pull-down, immobilized GST control, in vitro translated 35S-labelled SLC/CCL21
human THAP1 (THanatos …) = target: B1; assay: yeast two-hybrid screen of the pGAD424-HEVEC cDNA library with pGBT9-SLC bait (His selection)
From the text: In an effort to define the function of novel HEVEC proteins and the cellular pathways involved, we used different baits to screen a two-hybrid cDNA library generated from microvascular human HEV endothelial cells (HEVEC). HEVEC were purified from human tonsils by immunomagnetic selection with monoclonal antibody MECA-79 as previously described (Girard and Springer (1995) Immunity 2:113-123). The SMART PCR cDNA library Construction Kit (Clontech, Palo Alto, Calif., USA) was first used to generate full-length cDNAs from 1 μg HEVEC total RNA. Oligo-dT-primed HEVEC cDNA were then digested with SfiI and directionally cloned into pGAD424-Sfi, a two-hybrid vector generated by inserting a SfiI linker (5′-[…]-3′) (SEQ ID NO: 181) between EcoRI and BamHI cloning sites of pGAD424 (Clontech). The resulting pGAD424-HEVEC cDNA two-hybrid library (mean insert size>1 kb, ˜3×10⁶ independant clones) was amplified in E. coli. […]

[4] = target: T2, THAP1-N2 deletion mutant (amino acids …); assay: yeast two-hybrid, pGADT7-THAP1 mutant with pGBKT7-SLC/CCL21
Experimental: (§1) Two-hybrid interaction between THAP1 mutants and chemokine SLC/CCL21 was tested by cotransformation of AH109 with pGADT7-THAP1-C1, -C2, -C3, -N1, -N2 or -N3 and pGBKT7-SLC/CCL21 and selection of transformants by His and Ade double auxotrophy according to manufacturer's instructions ([…] two-hybrid system 3, Clontech). pGBKT7-SLC/CCL21 vector was generated by subcloning the BamHI SLC/CCL21 fragment from pGBT9-SLC (see example 1) into the unique BamHI cloning site of vector pGBKT7 (Clontech).

[5] = target: T3, THAP1-N3 deletion mutant (amino acids …); assay: as above
Experimental: as §1

[6] = target: T4, THAP1-C1 deletion mutant (amino acids …); assay: as above
Experimental: as §1

Binder | binding result [1] | binding result [2] | binding result [3] | binding result (human THAP1 (THanatos …)) | binding result [4] | binding result [5] | binding result [6]
B1 | no binding | no binding |  |  |  |  | 
B2 |  |  | no binding | binds | no binding | no binding | binds

— patent publication US20040224408A1, “THAP proteins as nuclear receptors for chemokines and roles in transcriptional regulation, cell proliferation and cell differentiation” (published 2004)
